Holding throughout (assay): two-hybrid library CCNG1;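 further: natural log of median RNA to DNA barcode read ratio; higher means stronger binding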
One test addresses T1, 4H2667-bH.
T1 chain: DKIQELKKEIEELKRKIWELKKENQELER

The target in a further test is T2, 4H908-bH.
T2 chain: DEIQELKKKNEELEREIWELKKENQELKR

Another test concerns the target T3, 4H2576-bH.
T3 chain: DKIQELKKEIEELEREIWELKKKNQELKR

For another test, the target named is T4, 4H338-bH.
T4 chain: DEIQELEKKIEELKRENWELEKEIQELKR

Another test has as its target T5, 4H2610-bH.
T5 chain: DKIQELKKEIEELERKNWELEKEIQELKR

In another test the target is T6, 4H797-bH.
T6 chain: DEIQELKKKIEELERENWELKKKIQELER

The next test addresses T7, 4H3112-bH.
T7 chain: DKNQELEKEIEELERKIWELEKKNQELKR

The next test concerns the target T8, 4H687-bH.
T8 chain: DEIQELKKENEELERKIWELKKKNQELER

The next test addresses T9, 4H462-bH.
T9 chain: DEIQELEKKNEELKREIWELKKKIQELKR

A further test addresses T10, 4H1446-bH.
T10 chain: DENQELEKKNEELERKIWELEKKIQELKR

The next test addresses T11, 4H1828-bH.
T11 chain: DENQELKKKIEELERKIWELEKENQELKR

The target in the next test is T12, 4H607-bA.
T12 chain: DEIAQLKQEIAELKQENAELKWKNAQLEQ

The target in the next test is T13, 4H2697-bH.
T13 chain: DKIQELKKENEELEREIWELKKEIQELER

The next test addresses T14, 4H370-bH.
T14 chain: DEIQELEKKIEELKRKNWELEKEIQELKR

The target of another test is T15, 4H953-bH.
T15 chain: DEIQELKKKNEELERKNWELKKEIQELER

The target of another test is T16, 4H454-bH.
T16 chain: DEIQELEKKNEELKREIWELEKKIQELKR

A further test addresses T17, 4H72-bH.
T17 chain: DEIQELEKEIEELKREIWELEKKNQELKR

The next test addresses T18, 4H754-bH.
T18 chain: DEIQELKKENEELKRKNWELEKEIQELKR

In the next test the target is T19, 4H883-bH.
T19 chain: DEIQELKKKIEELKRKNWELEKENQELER

The target of another test is T20, 4H2442-bH.
T20 chain: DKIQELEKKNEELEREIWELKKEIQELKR

The target of another test is T21, 4H3855-bH.
T21 chain: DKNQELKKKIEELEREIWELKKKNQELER

In a further test the target is T22, 4H3185-bH.
T22 chain: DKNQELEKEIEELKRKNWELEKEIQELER

Another test has as its target T23, 4H331-bH.
T23 chain: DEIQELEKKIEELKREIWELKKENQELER

Another test deals with T24, 4H967-bH.
T24 chain: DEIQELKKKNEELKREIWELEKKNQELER

In the next test the target is T25, 4H568-bH.
T25 chain: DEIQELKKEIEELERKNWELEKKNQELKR

In another test the target is T26, 4H918-bH.
T26 chain: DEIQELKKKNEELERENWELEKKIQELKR

The target of a further test is T27, 4H3843-bH.
T27 chain: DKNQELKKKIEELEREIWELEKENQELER

A further test deals with T28, 4H3782-bH.
T28 chain: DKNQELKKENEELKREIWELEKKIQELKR

The next test deals with T29, 4H717-bH.
T29 chain: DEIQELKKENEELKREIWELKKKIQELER

Another test has as its target T30, 4H3427-bH.
T30 chain: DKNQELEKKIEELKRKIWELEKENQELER

The target in another test is T31, 4H4001-bA.
T31 chain: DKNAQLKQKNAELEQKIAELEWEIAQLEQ

The target of the next test is T32, 4H2618-bH.
T32 chain: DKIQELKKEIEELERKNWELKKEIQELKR

A further test concerns the target T33, 4H3354-bH.
T33 chain: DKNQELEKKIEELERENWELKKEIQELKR

The target of a further test is T34, 4H3606-bH.
T34 chain: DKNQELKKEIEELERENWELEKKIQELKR

The target of a further test is T35, 4H3189-bH.
T35 chain: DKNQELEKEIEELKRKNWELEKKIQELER

A further test deals with T36, 4H607-bH.
T36 chain: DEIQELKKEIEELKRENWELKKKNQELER

The target of a further test is T37, 4H2729-bH.
T37 chain: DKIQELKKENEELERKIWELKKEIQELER

For a further test, the target named is T38, 4H4001-bH.
T38 chain: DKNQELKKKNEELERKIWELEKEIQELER

A further test has as its target T39, 4H1845-bH.
T39 chain: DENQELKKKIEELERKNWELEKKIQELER

For the next test, the target named is T40, 4H949-bA.
T40 chain: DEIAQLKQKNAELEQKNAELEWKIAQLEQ

The next test concerns the target T41, 4H2944-bA.
T41 chain: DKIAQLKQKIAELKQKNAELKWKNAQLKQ

The next test concerns the target T42, 4H48-bA.
T42 chain: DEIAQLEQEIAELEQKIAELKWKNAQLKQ

In the next test the target is T43, 4H2937-bA.
T43 chain: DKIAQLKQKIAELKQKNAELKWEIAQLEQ

For a further test, the target named is T44, 4H2883-bA.
T44 chain: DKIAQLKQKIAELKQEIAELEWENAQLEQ

Another test has as its target T45, 4H491-bA.
T45 chain: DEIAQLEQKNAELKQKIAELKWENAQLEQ

For another test, the target named is T46, 4H342-bA.
T46 chain: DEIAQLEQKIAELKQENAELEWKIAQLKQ

The target of the next test is T47, 4H2944-bN.
T47 chain: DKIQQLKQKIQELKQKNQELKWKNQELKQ

The target in a further test is T48, 4H2883-bN.
T48 chain: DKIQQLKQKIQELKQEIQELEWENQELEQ

In the next test the target is T49, 4H48-bN.
T49 chain: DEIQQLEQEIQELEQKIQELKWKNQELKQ

A further test deals with T50, 4H2937-bN.
T50 chain: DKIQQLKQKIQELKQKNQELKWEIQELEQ

The next test deals with T51, 4H491-bN.
T51 chain: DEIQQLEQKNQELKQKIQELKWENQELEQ

The next test deals with T52, 4H342-bN.
T52 chain: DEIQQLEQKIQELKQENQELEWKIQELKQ

Three molecules from paper PMC10397247 can be followed below.

B1: 4H1446-bH (peptide)
chain: DENQELEKKNEELERKIWELEKKIQELKR
Turning to B1, the interaction score was -0.551 with 4H2667-bH; -0.161 in the test with 4H908-bH; 0.59 in the test with 4H2576-bH; 1.17 in the test with 4H338-bH; 0.669 with 4H2610-bH; -0.466 with 4H797-bH. The interaction score with 4H3112-bH is -0.67; with 4H687-bH, 0.347; with 4H462-bH, 0.0836; in the test with 4H1446-bH it was 0.821; with 4H1828-bH it was 0.624; with 4H607-bA, 0.727. Also, the interaction score with 4H2697-bH was 1.08; with 4H370-bH, -0.404; in the test with 4H953-bH, -0.325; with 4H454-bH, 0.981; with 4H72-bH, -0.157; with 4H754-bH it was 0.109. Also, the interaction score in the test with 4H883-bH was found to be 0.0186; in the test with 4H2442-bH it was 0.731; with 4H3855-bH it was 0.34; in the test with 4H3185-bH, 0.0116; in the test with 4H331-bH it was 1.32; in the test with 4H967-bH, 0.346. In addition, the interaction score is -2.02 in the test with 4H568-bH; -1.41 with 4H918-bH; 1.3 with 4H3843-bH; 0.741 in the test with 4H3782-bH; -0.635 with 4H717-bH; 0.933 with 4H3427-bH. The interaction score with 4H4001-bA is 2.32; with 4H2618-bH, -0.314; in the test with 4H3354-bH, 0.818; with 4H3606-bH it was -0.704; in the test with 4H3189-bH, -1.86; with 4H607-bH, -0.622. For the same molecule, the interaction score with 4H2729-bH is 0.679; in the test with 4H4001-bH, 1.24; in the test with 4H1845-bH, 0.192; with 4H949-bA, -2.01.

B2: 4H2883-bA (peptide)
chain: DKIAQLKQKIAELKQEIAELEWENAQLEQ
In the case of B2, the interaction score is 1.15 with 4H2944-bA; 1.3 with 4H48-bA; 0.793 with 4H2937-bA; 0.521 with 4H2883-bA; -0.886 in the test with 4H491-bA; -0.134 with 4H342-bA.

B3: 4H2883-bN (peptide)
chain: DKIQQLKQKIQELKQEIQELEWENQELEQ
In the case of B3, the interaction score in the test with 4H2944-bN was 0.237; with 4H2883-bN, 0.96; with 4H48-bN it was 2; with 4H2937-bN, -1.33; with 4H491-bN, -0.669; with 4H342-bN, -1.84.
